How the values were obtained:
[1] = Catalytic properties of IDS with radiolabelled disaccharide substrate; format: biochemical; details: for Specific Activity / pH Optimum: IdoA2S-anM6S substrate; for Km / Vmax: IdoA2S-anM6S, 50 mM sodium acetate pH 4.5, 500 μg/ml BSA
Method: (§1) Media samples, or cell lysates prepared by six cycles of freeze/thaw in 0.5 M-NaCl/20 mM-Tris/HCl, pH 7.0, were clarified by microcentrifugation (12,000×g, 4° C., 5 min) and were either assayed directly or after dilution in assay buffer. […] IDS was assayed using the radiolabelled disaccharide substrate IdoA2S-anM6S (3). Protein estimations were according to the method of Lowry et al (29).
(§2) The rIDS was purified from the collected medium by a 3-step column procedure. The medium was dialysed overnight at 4° C. against 30 mM-Tris/HCl, pH 7.0/10% v/v glycerol/0.1 mM-DTE/3 mM-NaN3 (buffer A) and was applied to a PBE94 column (8 cm×1.5 cm) equilibrated in buffer A (flow-rate 1.0 ml/min) and then washed with 100 ml of buffer A. Bound proteins were […] with polybuffer 74 that had been diltured 1:18 with water, the pH adjusted to 4.0 with HCl and the solution made 10% v/v in glycerol, 0.1 mM-DTE and 3 mM-NaN3. The column was further eluted with 100 ml 15 mM-ditheriothreitol/3 mM-NaN3 (buffer B). The rIDS eluted in buffer B was applied at a flow-rate of 1.0 ml/min to a Blue A agarose column (6 cm×0.7 cm) also equilibrated in buffer B. The rIDS activity from this step was applied in 1.0 ml volumes to an LKB Ultrachrom GTi f.p.l.c. system with a TSK G3000SW Ultrapac column (30 cm×0.8 cm) equilibrated and eluted in buffer B at a flow-rate of 0.5 ml/min and pressure of 150 kPa. Fractions containing rIDS activity were pooled and analysed under denaturing and non-denaturing condition on SDS-PAGE (10% w/v acrylamide) to estimate apparent subunit size. Gels were stained with either Gradipure Colloidal Electrophoresis Gel Stain (Gradipure, Pyrmont, NSW) or silver stained accordinng to the method of Merril et al (32). Native molecular mass was determined using the f.p.l.c. system as described elsewhere (3) Kinetic (Km, V max, pH optima) and inhibition data were obtained as previously described (3).
Although both the liver and rIDS show a similar Km towards the disaccharide substrate (IdoA2S-anM6S) in the standard assay (50 mM sodium acetate pH 4.5 and 500 μg/ml BSA) they have a substantially different V max. […] Alternatively, this may reflect a difference between enzyme produced in CHO cells and in liver. Both the (CHO) recombinant and (liver) mature form of the enzyme have similar pH optima and specific activities (Table 2).

[2] = test system: MPS II fibroblasts (SF-635 and SF-1779); experiment: Correction of MPS II fibroblasts by rIDS; format: cell-based, human; details: for 35S-cpm/mg Cell Protein / β-Hexosaminidase activity in cell lysate / IDS activity in cell lysate: 5 × 10^4 pmol/min per ml rIDS, 72 hours; for IDS activity in cell lysate: undialysed lysate
Method: Human diploid fibroblasts were established from skin biopsies submitted to this hosptial for diagnosis (28). Cell lines were maintained according to established procedures in BME, 10% v/v FCS and antibiotics unless otherwise stated. The two MPS II skin fibroblast cell lines used in this study (SF-635 and SF-1779) both have low residual IDS activity.
as §1
The fluorogenic substrate 4-methylumbelliferyl-2-acetamido-2-deoxy-β-D-glucopyranoside was used to measure β-hexosaminidase activity (31).
For these experiments IDS was obtained from CHOEFI2S-9 cells cultured in CHO-SFM medium suppplemented with 10 mM-NH4C1 and antibiotics. […] Fibroblasts from a normal individual (SF-3409) and from two MPS II patients (SF-635 and SF-1779) were grown to confluency in 25 cm^2 flasks and radiolabelled with Na2^35SO4 as previously described (27). The labelled cells were then exposed to 5×10^4 pmol/min per ml of rIDS for 72 hours. After harvesting the cells by trypsin treatment and washing by centrifugation/resuspension in PBS, the cell pellet was resuspended in 100 μl of 20 mM-Tris/HCl, pH 7.0/0.5 M-NaCl, and the cell lysates prepared as described above. The cell extracts were analysed for IDS activity, total protein, β-hexosaminidase activity and radioactivity.

MPS II cells (SF-1779) = experiment: Endocytosis of rIDS with or without mannose-6-phosphate; format: cell-based, human; details: rIDS at 5×10^4 and 5×10^3 pmol/min per ml, 5 mM mannose-6-phosphate
Method: Cells from SF-1779 were plated in 20 wells (3.83 cm^2) and allowed to reach confluency. Wells 1 to 4 were untreated controls. To each of wells 5 to 12 and 13 to 20 was added 1.0 ml of medium containing rIDS at 5×10^4 pmol/min per ml and 5×10^3 pmol/min per ml respectively. In addition the medium in wells 9 to 12 and 17 to 20 was made 5 mM mannose-6-phosphate. The cells were then incubated for 6 hours after which time they were rinsed with medium and fresh medium added. The cells were incubated overnight and then harvested, washed and lysed as described above. The cell lysates were dialysed against 5 mM-sodium acetate, pH 4.0, for 16 h at 4° C. and then analysed for IDS activity and total protein.

[3] = test system: MPS II skin fibroblasts (SF-635); experiment: Subcellular fractionation of rIDS-treated cells on Percoll density gradients; format: cell-based, human; details: corrected MPS II cells; Percoll gradient of post-nuclear supernatant
Method: Cells from SF-635 were grown to confluency in 75 cm^2 flasks and then exposed to medium supplemented with 5×10^4 pmol/min per ml rIDS. The cells were incubated for 72 h then harvested and fractionated on Percoll density gradients as described in Anson el al (27). The resulting gradient was collected in 1.0 ml fractions by bottom puncture and the fractions analysed for IDS and β-hexosaminidase activity.

[4] = Chromatofocusing on PBE94; format: physicochemical; details: majority of rIDS (pool B)
Method: as §2, with “Gels were stained with either Gradipure Colloidal Electrophoresis Gel Stain (Gradipure, Pyrmont, NSW) or silver stained accordinng to the method of Merril et al (32).” left out

B1: rIDS: Recombinant human iduronate 2-sulfatase, highly glycosylated, secreted by CHO-K1 clonal line CHOEFI2S-9 (protein)
chain: SETQANSTTDALNVLLIIVDDLRPSLGCYGDKLVRSPNIDQLASHSLLFQNAFAQQAVCAPSRVSFLTGRRPDTTRLYDFNSYWRVHAGNFSTIPQYFKENGYVTMSVGKVFHPGISSNHTDDSPYSWSFPPYHPSSEKYENTKTCRGPDGELHANLLCPVDVLDVPEGTLPDKQSTEQAIQLLEKMKTSASPFFLAVGYHKPHIPFRYPKEFQKLYPLENITLAPDPEVPDGLPPVAYNPWMDIRQREDVQALNISVPYGPIPVDFQRKIRQSYFASVSYLDTQVGRLLSALDDLQLANSTIIAFTSDHGWALGEHGEWAKYSNFDVATHVPLIFYVPGRTASLPEAGEKLFPYLDPFDSASQLMEPGRQSMDLVELVSLFPTLAGLAGLQVPPRCPVPSFHVELCREGKNLLKHFRFRDLEEDPYLPGNPRELIAYSQYPRPSDIPQWNSDKPSLKDIKIMGYSIRTIDYRYTVWVGFNPDEFLANFSDIHAGELYFVDSDPLQDHNMYNDSQGGDLFQLLMP
Specific Activity [1]: 20.8 μmol/min per mg
pH Optimum [1]: 4.5
Km [1]: 3 µM
Vmax [1]: 3.35 μmol/min per mg
Clearance of stored 35S-labelled material ([2]; MPS II fibroblasts, rIDS at 5×10^4 pmol/min per ml): clearance of this stored product to levels comparable to those seen in control fibroblasts
IDS activity level above normal ([2]; SF635, rIDS at 5×10^4 pmol/min per ml): 80 fold
IDS activity level above normal ([2]; SF1779, rIDS at 5×10^4 pmol/min per ml): 40 fold
35S-cpm/mg Cell Protein ([2]; SF-635 cells labelled with Na2 35SO4): 9018 ± 1988 cpm/mg
β-Hexosaminidase activity in cell lysate ([2]; SF-635 cells): 257 ± 14 nmol/min per mg
IDS activity in cell lysate ([2]; SF-635 cells): 1140 ± 50 pmol/min per mg
35S-cpm/mg Cell Protein ([2]; SF-1779 cells labelled with Na2 35SO4): 5136 ± 502 cpm/mg
β-Hexosaminidase activity in cell lysate ([2]; SF-1779 cells): 118 ± 11 nmol/min per mg
IDS activity in cell lysate ([2]; SF-1779 cells): 562 ± 99 pmol/min per mg
Effect on activity of second lysosomal enzyme β-hexosaminidase ([2]; endocytosis of IDS in MPS II fibroblasts): not affected
Uptake of IDS activity in presence or absence of mannose-6-phosphate (MPS II cells (SF-1779)): uptake is mediated via the mannose-6-phosphate receptor
Subcellular localisation of endocytosed enzyme [3]: fractionated with the lysosomal enzyme β-hexosaminidase in the dense fraction of the gradient
pI [4]: < 4.0

B2: Liver IDS: Naturally glycosylated mature iduronate 2-sulfatase purified from human liver (protein, UniProt P22304 34-455; P22304 456-550, looked up)
Iduronate 2-sulfatase 42 kDa …: TDALNVLLIIVDDLRPSLGCYGDKLVRSPNIDQLASHSLLFQNAFAQQAVCAPSRVSFLTGRRPDTTRLYDFNSYWRVHAGNFSTIPQYFKENGYVTMSVGKVFHPGISSNHTDDSPYSWSFPPYHPSSEKYENTKTCRGPDGELHANLLCPVDVLDVPEGTLPDKQSTEQAIQLLEKMKTSASPFFLAVGYHKPHIPFRYPKEFQKLYPLENITLAPDPEVPDGLPPVAYNPWMDIRQREDVQALNISVPYGPIPVDFQRKIRQSYFASVSYLDTQVGRLLSALDDLQLANSTIIAFTSDHGWALGEHGEWAKYSNFDVATHVPLIFYVPGRTASLPEAGEKLFPYLDPFDSASQLMEPGRQSMDLVELVSLFPTLAGLAGLQVPPRCPVPSFHVELCREGKNLLKHFRFRDLEEDPYLPG
Iduronate 2-sulfatase 14 kDa …: NPRELIAYSQYPRPSDIPQWNSDKPSLKDIKIMGYSIRTIDYRYTVWVGFNPDEFLANFSDIHAGELYFVDSDPLQDHNMYNDSQGGDLFQLLMP
modifications: natural glycosylation, liver-purified
notes: Naturally glycosylated mature iduronate 2-sulfatase purified from human liver
Specific Activity [1]: 11.9 μmol/min per mg
pH Optimum [1]: 4.5
Km [1]: 4 µM
Vmax [1]: 80 μmol/min per mg

Reference: US6541254B1, “Glycosylation variants of iduronate 2-sulfatase” (Women's and Children's Hospital, priority 1991, dated 2003)
